# Results from article PMC11432006 (2024).
# T1: GFP-BC2-tag
# T1 chain: PDRKAAVSHWQQ
# B1: anti-BC2-tag VHH (BC2-Nb) (VHH)
# VHH: QVQLVESGGGLVQPGGSLTLSCTASGFTLDHYDIGWFRQAPGKEREGVSCINNSDDDTYYADSVKGRFTIFMNNAKDTVYLQMNSLKPEDTAIYYCAEARGCKRGRYEYDFWGQGTQVTVSS
# Experiments:
# [1] = molecular target: T1, GFP-BC2-tag; test: SPR
# [2] = molecular target: T1, GFP-BC2-tag; test: SPR; 5 mM DTT (reduced)
binder,measurement,setting,value
B1,Kd,[1],9.28 nM
same,Kd,[2],55.2 nM
